From US20140206607A1 (INDIANA UNIVERSITY RESEARCH AND TECHNOLOGY, published 2014)
Numbered stars: 1 amine (or outer) side, 2 acyl side, 3 side chain; on linkers, the order of the positions; unused ones are H or OH. Square brackets hold non-standard residues; d marks the D form. Primed or numbered codes have the meaning given here. Side chains are listed from the residue outwards. Ends that are not written are not given here. * marks the point of attachment. 40K‑TE PEG = 40 kDa PEG covalently bound via thioether, formed by reaction of the free thiol of the peptide (Cys side chain) with an iodoacetic-functionalized PEG; 20K‑TE PEG″ = 20 kDa PEG attached via a thioether, formed by reacting the free thiol of the peptide with an iodoacetic-functionalized PEG; 12K‑ME PEG = 12 kDa PEG bound via maleimido-thioether; γGlu = O=C(O)[C@H](CCC(=O)[*:2])N[*:1]; Palmitoyl = CCCCCCCCCCCCCCCC(=O)*; EC16 = not defined here; Aib = CC(C)(N)C(=O)O

T1: GIP receptor (UniProt P48546 22-466)
T1 sequence (looked up): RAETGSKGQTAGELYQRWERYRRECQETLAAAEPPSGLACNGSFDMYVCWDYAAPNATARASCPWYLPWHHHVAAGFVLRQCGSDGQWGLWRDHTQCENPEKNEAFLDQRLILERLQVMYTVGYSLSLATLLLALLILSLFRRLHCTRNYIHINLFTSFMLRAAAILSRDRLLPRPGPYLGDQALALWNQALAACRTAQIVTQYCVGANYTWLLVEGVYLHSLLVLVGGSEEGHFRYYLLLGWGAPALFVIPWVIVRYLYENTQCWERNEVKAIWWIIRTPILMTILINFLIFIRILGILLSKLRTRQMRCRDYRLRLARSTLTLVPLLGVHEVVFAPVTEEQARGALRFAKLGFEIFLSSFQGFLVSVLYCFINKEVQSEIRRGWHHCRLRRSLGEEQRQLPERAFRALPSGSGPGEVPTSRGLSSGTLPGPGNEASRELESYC


Tests used:
Assay in all cases: cell-based or functional assay
glucagon receptor = glucagon receptor (UniProt P47871 26-477, limits assumed)
GLP-1 receptor = GLP-1 receptor (UniProt P43220 24-463, limits assumed)
GIP receptor = molecular target: T1, GIP receptor

glucagon receptor, sequence (P47871 26-477 limits assumed): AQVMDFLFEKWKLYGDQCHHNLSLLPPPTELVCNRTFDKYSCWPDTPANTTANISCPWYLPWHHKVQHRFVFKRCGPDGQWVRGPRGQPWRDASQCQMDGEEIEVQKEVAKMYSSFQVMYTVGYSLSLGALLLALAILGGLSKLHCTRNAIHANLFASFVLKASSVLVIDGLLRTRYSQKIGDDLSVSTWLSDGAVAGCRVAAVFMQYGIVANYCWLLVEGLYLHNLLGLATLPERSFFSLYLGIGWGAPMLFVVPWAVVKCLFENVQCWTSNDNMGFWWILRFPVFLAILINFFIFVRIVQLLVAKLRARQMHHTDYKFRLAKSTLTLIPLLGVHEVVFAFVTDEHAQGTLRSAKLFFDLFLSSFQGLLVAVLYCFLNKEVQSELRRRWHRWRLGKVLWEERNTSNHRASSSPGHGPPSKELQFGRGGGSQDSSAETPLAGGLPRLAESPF

| Binder | EC50 (nM) at glucagon receptor (glucagon receptor) [nM] | EC50 (nM) at GLP-1 receptor (GLP-1 receptor) [nM] | EC50 (nM) at GIP receptor (GIP receptor) [nM] |
| --- | --- | --- | --- |
| H[Aib]QGTFTSDYSKYLDEK[Aib]AKEFVC(40K‑TE PEG)WLLDT-NH2 [peptide of SEQ ID NO: 52] | 4.5 | 0.054 |  |
| H[Aib]QGTFTSDYSKYLD[Aib]KRAKEFVQWLLC(40K‑TE PEG)T-OH [peptide of SEQ ID NO: 39] | 0.852 | 1.28 |  |
| H[Aib]QGTFTSDYSKYLD[Aib]KRA[Aib]EFVC(40K‑TE PEG)WLLDT-NH2 [peptide of SEQ ID NO: 38] | 0.141 | 0.31 |  |
| HXQGTFTSDKSKYLDERAAQDFVQWLMDT (Aib at 2; Lys 10 acylated, printed K(γEyEC16); C-terminal amide) [peptide of SEQ ID NO: 61] | 0.009 | 0.004 | 0.676 |
| H[Aib]QGTFTSDYSKYLD[Aib]KRAKEFVQWLLDTC(40K‑TE PEG)-NH2 [peptide of SEQ ID NO: 40] | 1.19 | 0.653 |  |
| H[Aib]QGTFTSDYSKYLDEKRA[Aib]EFVC(40K‑TE PEG)WLLDT-OH [peptide of SEQ ID NO: 45] | 0.651 | 1.44 |  |
| H[dS]QGTFTSDK([γGlu-Palmitoyl])SKYLDEQAAKEFIC(20K‑TE PEG″)WLLDT-NH2 [peptide of SEQ ID NO: 44] | 0.023 | 0.017 |  |
| H[Aib]QGTFTSDYSKYLDEKRA[Aib]EFV[Aib]WLLC(40K‑TE PEG)T-NH2 [peptide of SEQ ID NO: 42] | 1.01 | 0.117 |  |
| H[Aib]QGTFTSDKSKYLDERRA[Aib]DFVQWLMNT-NH2 (not fully specified (residue 10); printed as HaibQGTFTSDK(C16 acyl)SKYLDERRAaibDFVQWLMNT-amide) [peptide of SEQ ID NO: 59] | 0.051 | 0.01 | 7.48 |
| H[Aib]QGTFTSDK([γGlu-Palmitoyl])SKYLD[Aib]RAAQDFVQWLMKTK[dE]-OH [peptide of SEQ ID NO: 60] | 4.6 | 0.033 | 147 |
| H[dA]QGTFTSDK([γGlu-Palmitoyl])SKYLDERAAQDFVQWLLDT-NH2 (N-terminus assumed; SMILES CCCCCCCCCCCCCCCC(=O)N[C@@H](CCC(=O)NCCCC[C@H](NC(=O)[C@H](CC(=O)O)NC(=O)[C@H](CO)NC(=O)[C@@H](NC(=O)[C@H](Cc1ccccc1)NC(=O)[C@@H](NC(=O)CNC(=O)[C@H](CCC(N)=O)NC(=O)[C@@H](C)NC(=O)[C@@H](N)Cc1c[nH]cn1)[C@@H](C)O)[C@@H](C)O)C(=O)N[C@@H](CO)C(=O)N[C@@H](CCCCN)C(=O)N[C@@H](Cc1ccc(O)cc1)C(=O)N[C@@H](CC(C)C)C(=O)N[C@@H](CC(=O)O)C(=O)N[C@@H](CCC(=O)O)C(=O)N[C@@H](CCCNC(=N)N)C(=O)N[C@@H](C)C(=O)N[C@@H](C)C(=O)N[C@@H](CCC(N)=O)C(=O)N[C@@H](CC(=O)O)C(=O)N[C@@H](Cc1ccccc1)C(=O)N[C@H](C(=O)N[C@@H](CCC(N)=O)C(=O)N[C@@H](Cc1c[nH]c2ccccc12)C(=O)N[C@@H](CC(C)C)C(=O)N[C@@H](CC(C)C)C(=O)N[C@@H](CC(=O)O)C(=O)N[C@H](C(N)=O)[C@@H](C)O)C(C)C)C(=O)O) [peptide of SEQ ID NO: 56] | 0.006 | 0.02 | 1.64 |
| H[Aib]QGTFTSDYSKYLDEKRA[Aib]EFVC(40K‑TE PEG)WLLDT-NH2 [peptide of SEQ ID NO: 13] | 0.141 | 0.067 |  |
| H[Aib]QGTFTSDYSKYLD[Aib]KRA[Aib]EFVC(40K‑TE PEG)WLLDGGPSSGAPPPS-NH2 [peptide of SEQ ID NO: 46] | 0.227 | 0.136 |  |
| H[Aib]QGTFTSDYSKYLDEKRA[Aib]DFVC(40K‑TE PEG)WLLDT-NH2 [peptide of SEQ ID NO: 54] | 0.939 | 0.097 |  |
| H[dS]QGTFTSDK([γGlu-adamantylacetyl])SKYLDERAAQDFVQWLLDT-NH2 [peptide of SEQ ID NO: 48] | 0.026 | 0.039 |  |
| H[Aib]QGTFTSDYSKYLDEKRA[Aib]EFVC(40K‑TE PEG)WLLDE-NH2 [peptide of SEQ ID NO: 16] | 0.563 | 0.487 | 465 |
| H[dS]QGTFTSDK([γGlu-Palmitoyl])SKYLDEQAAKEFIC(12K‑ME PEG)WLLDT-NH2 [peptide of SEQ ID NO: 43] | 0.02 | 0.011 |  |
| H[Aib]QGTFTSDYSKYLDEKRA[Aib]EFVC(40K‑TE PEG)WLL[Aib]GGPSSGAPPPS-NH2 [peptide of SEQ ID NO: 51] | 2.04 | 0.062 |  |
| H[Aib]QGTFTSDK(Palmitoyl)SKYLDSRRA[Aib]DFVQWLMNT-NH2 (N-terminus assumed; SMILES CCCCCCCCCCCCCCCC(=O)NCCCC[C@H](NC(=O)[C@H](CC(=O)O)NC(=O)[C@H](CO)NC(=O)[C@@H](NC(=O)[C@H](Cc1ccccc1)NC(=O)[C@@H](NC(=O)CNC(=O)[C@H](CCC(N)=O)NC(=O)C(C)(C)NC(=O)[C@@H](N)Cc1c[nH]cn1)[C@@H](C)O)[C@@H](C)O)C(=O)N[C@@H](CO)C(=O)N[C@@H](CCCCN)C(=O)N[C@@H](Cc1ccc(O)cc1)C(=O)N[C@@H](CC(C)C)C(=O)N[C@@H](CC(=O)O)C(=O)N[C@@H](CO)C(=O)N[C@@H](CCCNC(=N)N)C(=O)N[C@@H](CCCNC(=N)N)C(=O)N[C@@H](C)C(=O)NC(C)(C)C(=O)N[C@@H](CC(=O)O)C(=O)N[C@@H](Cc1ccccc1)C(=O)N[C@H](C(=O)N[C@@H](CCC(N)=O)C(=O)N[C@@H](Cc1c[nH]c2ccccc12)C(=O)N[C@@H](CC(C)C)C(=O)N[C@@H](CCSC)C(=O)N[C@@H](CC(N)=O)C(=O)N[C@H](C(N)=O)[C@@H](C)O)C(C)C) [peptide of SEQ ID NO: 58] | 0.09 | 0.025 | 35.7 |
| H[Aib]QGTFTSDYSKYLDEKRA[Aib]EFVC(40K‑TE PEG)WLLDGGPSSGAPPPS-NH2 [peptide of SEQ ID NO: 47] | 0.591 | 0.052 |  |
| H[Aib]QGTFTSDYSKYLDEKRA[Aib]EFVC(40K‑TE PEG)WLL[Aib]T-NH2 [peptide of SEQ ID NO: 41] | 0.309 | 0.074 |  |
| H[dS]QGTFTSDK([γGlu-EC16])SKYLDERAAQDFVQWLLDGRG-NH2 (reading uncertain; also: printed as HsQGTFTSDK(gammaGlu-EC16)SKYLDERAAQDFVQWLLDGRG-amide) [peptide of SEQ ID NO: 19] | 0.004 | 0.002 | 0.812 |
| H[dS]QGTFTSDK(benzoylpropionyl)SKYLDERAAQDFVQWLLDGGPSSGAPPPS-NH2 [peptide of SEQ ID NO: 49] | 0.063 | 0.01 |  |
| H[dS]QGTFTSDK(EDTA amide)SKYLDERAAQDFVQWLLDGGPSSGAPPPS-NH2 [peptide of SEQ ID NO: 55] | 4.34 | 0.108 |  |
